Consider 3 molecules from article PMC8626469, “Helicobacter pylori FabX contains a [4Fe-4S] cluster essential for unsaturated fatty acid synthesis” (Nature Communications, 2021).

Substrate in the data set “purified protein”: CCCCCCCCCC(=O)SCCNC(=O)CCNC(=O)[C@H](O)C(C)(C)COP(=O)(O)OP(=O)(O)OC[C@H]1O[C@@H](n2cnc3c(N)ncnc32)[C@H](O)[C@@H]1OP(=O)(O)O
Briefly: purified protein. It is filed as biochemical, Helicobacter pylori. The note with it: pH 7.2, 50 mM sodium phosphate, 50 mM NaCl, 25-37 °C, 1.25 uM FabX, 5 uM E. coli FabI, 125 uM NADH, dehydrogenation of substrate analogue of decanoyl-ACP, 30-250 uM.

Data set [1] concerns the target Helicobacter pylori FabX R164A (H. pylori).
Data set [2] deals with Helicobacter pylori FabX (H. pylori). Kind of data set: SEC-MALS; 10 mg/ml FabX, holo-ACP or FabX-holo-ACP complex on a WTC-030S5 column; 20 mM HEPES pH 8.0, 50 mM NaCl, 10 mM TCEP. A general note: Size exclusion chromatography separates by hydrodynamic size, large species first.

B1: FabX (Helicobacter pylori) (protein)
chain: MVSTLKPLKIGKHTIKFPIFQGGMGVGISWDELAGNVAKEGALGVISAVGTGYYKNMRFVERIVAKKPFEALNFYSKKALNEIFANARKICGNNPLGANILYAINDYGRVLRDSCEAGANIIITGAGLPTNMPEFAKDFSDVALIPIISSAKALKILCKRWSDRYKRIPDAFIVEGPLSGGHQGFKYEDCFKEEFRLENLVPKVVEASKEWGNIPIIAAGGIWDRKDIDTMLSLGASGVQMATRFLGTKECDAKVYADLLPTLKKEDILLIKSPVGYPARAINTGVIKRIEEGNAPKIACVSNCVAPCNRGEEAKKVGYCIADGLGRSYLGNREEGLYFTGANGYRVDKIISVHELIKELTEG
notes: full length, 363 residues; expressed in E. coli BL21(DE3) Rosetta; monomer in the asymmetric unit; holds FMN and a [4Fe-4S] cluster
On to B1, for which, in “purified protein”, the Km (in general, the substrate concentration at which the rate is half of its maximum) was 125.40 µM; the kcat – broadly, the number of substrate molecules converted per active site and unit of time at saturation – came out at 0.0186 s⁻¹.

B2: Helicobacter pylori decanoyl-acyl carrier protein (natural protein)
chain: MALFEDIQAVIAEQLNVDAVQVTPEAEFVKDLGADSLDVVELIMALEEKFGVEIPDEQAEKIINVGDVVKYIEDNKLA
Consider B2, for which the in vitro dehydrogenation activity with decanoyl-ACP (FabX-FabI coupled assay), fold reduction against wild type FabX in data set [1] worked out at 80 fold.

B3: Helicobacter pylori holo-acyl carrier protein (natural protein)
chain: MALFEDIQAVIAEQLNVDAVQVTPEAEFVKDLGADSLDVVELIMALEEKFGVEIPDEQAEKIINVGDVVKYIEDNKLA
modifications: phosphopantetheine group (PPant) on Ser36
Regarding B3, in data set [2], the stoichiometry N – broadly, a count of units in the complex or per binding partner – turned out to be 1.
